Laboratory results taken from patent US6008029A, “Purified coprinus laccases and nucleic acids encoding the same” (Novo Nordisk Biotech Inc., priority 1996, dated 1999).

Assays:
[1] = substrate: CCn1c(=NN=c2sc3cc(S(=O)(=O)O)ccc3n2CC)sc2cc(S(=O)(=O)O)ccc21; assay: purified protein, by the assay type; conditions: other: pH 5.3, ABTS oxidation, 20.0 °C
[2] = substrate: COc1cc(C=NN=Cc2cc(OC)c(O)c(OC)c2)cc(OC)c1O; assay: purified protein, by the assay type; type: biochemical, Coprinus cinereus; conditions: other: pH 5.3, syringaldazine oxidation, 20.0 °C
Description: Laccase activity is determined by syringaldazine oxidation. Specifically, 60 μl of syringaldazine stock solution (0.28 mM in 50% ethanol) and 20 μl of laccase sample are mixed with 0.8 ml of preheated Britton-Robinson buffer solution and incubated at 20° C. The oxidation is monitored at 530 nm over 5 minutes and activity is expressed as "SOU" μmole syringaldazine oxidized per minute ("SOU"). Britton-Robinson buffers with various pHs are used.
The values for Km and kcat are determined by fitting initial rates (v=ΔA/Δt/Δe; Δe: extinction coefficient change), laccase concentration (E), and substrate concentration (S) into v=kcat *E*S/(Km +S) with the Prizm nonlinear regression software (GraphPad, San Diego, Calif.).

B1: recombinant Coprinus cinereus laccase Lcc1 (SEQ ID NO:27), expressed in Aspergillus oryzae (Coprinopsis cinerea) (protein)
chain: QIVNSVDTMTLTNANVSPDGFTRAGILVNGVHGPLIRGGKNDNFELNVVNDLDNPTMLRPTSIHWHGLFQRGTNWADGADGVNQCPISPGHAFLYKFTPAGHAGTFWYHSHFGTQYCDGLRGPMVIYDDNDPHAALYDEDDENTIITLADWYHIPAPSIQGAAQPDATLINGKGRYVGGPAAELSIVNVEQGKKYRMRLISLSCDPNWQFSIDGHELTIIEVDGQLTEPHTVDRLQIFTGQRYSFVLDANQPVDNYWIRAQPNKGRNGLAGTFANGVNSAILRYAGAANADPTTSANPNPAQLNEADLHALIDPAAPGIPTPGAADVNLRFQLGFSGGRFTINGTAYESPSVPTLLQIMSGAQSANDLLPAGSVYELPRNQVVELVVPAGVLGGPHPFHLHGHAFSVVRSAGSSTYNFVNPVKRDVVSLGVTGDEVTIRFVTDNPGPWFFHCHIEFHLMNGLAIVFAEDMANTVDANNPPVEWAQLCEIYDDLPPEATSIQTVVRRAEPTGFSAKFRREGL
[1]
  Km: 23 ± 3 µM
  kcat: 18.17 ± 0.5 s⁻¹
[2]
  Km: 26 ± 6 µM
  kcat: 3 ± 0.333 s⁻¹
